The numbers were not newly measured in publication PMC3447994, which cites them from elsewhere.

The target of this data set is IgG Fc Fc (Homo sapiens) [IgG part: P01857].

Chain of FcγRIIIa (P08637 17-254): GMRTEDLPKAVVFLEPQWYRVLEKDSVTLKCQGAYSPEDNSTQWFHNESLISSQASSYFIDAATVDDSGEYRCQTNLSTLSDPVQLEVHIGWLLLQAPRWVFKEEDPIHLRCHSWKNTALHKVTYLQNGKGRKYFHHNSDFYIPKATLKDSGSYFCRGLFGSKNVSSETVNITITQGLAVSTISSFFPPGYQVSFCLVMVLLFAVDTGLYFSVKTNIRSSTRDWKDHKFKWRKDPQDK

Consider FcγRIIIa (from UniProt P08637), for which the Kd (commonly the equilibrium constant for the complex coming apart) was 2000 nM.
